# Patent US5616559, “Papillomavirus E2 trans-activation repressors” (Biogen, Inc., dated 1997)
# Numbering of substitutions follows the chain as printed.
# B1: BPV1 E2 mutant 333V in the E2 repressor format (C-terminal 249 amino acids) (other)
# chain: MAGAGRIYYSRFGDEAARFSTTGHYSVRDQDRVYAGVSSTSSDFRDRPDGVWVASEGPEGDPAGKEAEPAQPVSSLLGSPACGPIRAGLGWVRDGPRSHPYNFPAGSGGSILRSSSTPVQGTVPVDLASRQEEEEQSPDSTEEEPVTLPRRTTNDGFHLLKAGGSCFALISVTANQVKCYRFRVKKNHRHRYENCTTTWFTVADNGAERQGQAQILITFGSPSQRQDFLKHVPLPPGMNISGFTASLDF
# B2: BPV1 E2 mutant 360S in the E2 repressor format (C-terminal 249 amino acids) (other)
# chain: B1 chain with V172G, W199S
# B3: BPV1 E2 mutant 340F in the E2 repressor format (C-terminal 249 amino acids) (other)
# chain: B1 chain with V172G, C179F
# B4: BPV1 E2 mutant 344L in the E2 repressor format (C-terminal 249 amino acids) (other)
# chain: B1 chain with V172G, R183L
# B5: BPV1 E2 mutant 386W in the E2 repressor format (C-terminal 249 amino acids) (other)
# chain: B1 chain with V172G, R225W
# B6: BPV1 E2 mutant 340Y in the E2 repressor format (C-terminal 249 amino acids) (other)
# chain: B1 chain with V172G, C179Y
# B7: BPV1 E2 mutant 340G in the E2 repressor format (C-terminal 249 amino acids) (other)
# chain: B1 chain with V172G, C179G
# B8: BPV1 E2 mutant 340S in the E2 repressor format (C-terminal 249 amino acids) (other)
# chain: B1 chain with V172G, C179S
# B9: BPV1 E2 mutant 339M in the E2 repressor format (C-terminal 249 amino acids) (other)
# chain: B1 chain with V172G, K178M
# B10: BPV1 E2 mutant 340R in the E2 repressor format (C-terminal 249 amino acids) (other)
# chain: B1 chain with V172G, C179R
# B11: BPV1 E2 mutant 399I in the E2 repressor format (C-terminal 249 amino acids) (other)
# chain: B1 chain with V172G, M238I
# B12: BPV1 E2 mutant 337L in the E2 repressor format (C-terminal 249 amino acids) (other)
# chain: B1 chain with V172G, Q176L
# B13: BPV1 E2 repressor with a tryptophan to asparagine mutation at amino acid residue 360 (other)
# chain: B1 chain with V172G, W199N
# B14: E2-85 (methionine, alanine and the C-terminal 83 amino acids of HPV16 E2) (other)
# chain: MASNTTPIVHLKGDANTLKCLRYRFKKHCTLYTAVSSTWHWTGHNVKHKSAIVTLTYDSEWQRDQFLSQVKIPKTITVSTGFMSI
# B15: E2-123 (methionine, valine and the C-terminal 121 amino acids of HPV16 E2) (other)
# chain: MVPDTGNPCHTTKLLHRDSVDSAPILTAFNSSHKGRINCNSNTTPIVHLKGDANTLKCLRYRFKKHCTLYTAVSSTWHWTGHNVKHKSAIVTLTYDSEWQRDQFLSQVKIPKTITVSTGFMSI
# B16: BPV1 E2 mutant 360S, full-length form (other)
# chain: METACERLHVAQETQMQLIEKSSDKLQDHILYWTAVRTENTLLYAARKKGVTVLGHCRVPHSVVCQERAKQAIEMQLSLQELSKTEFGDEPWSLLDTSWDRYMSEPKRCFKKGARVVEVEFDGNASNTNWYTVYSNLYMRTEDGWQLAKAGADGTGLYYCTMAGAGRIYYSRFGDEAARFSTTGHYSVRDQDRVYAGVSSTSSDFRDRPDGVWVASEGPEGDPAGKEAEPAQPVSSLLGSPACGPIRAGLGWVRDGPRSHPYNFPAGSGGSILRSSSTPVQGTVPVDLASRQEEEEQSPDSTEEEPVTLPRRTTNDGFHLLKAGGSCFALISGTANQVKCYRFRVKKNHRHRYENCTTTSFTVADNGAERQGQAQILITFGSPSQRQDFLKHVPLPPGMNISGFTASLDF
# B17: BPV1 E2 mutant 333V, full-length form (other)
# chain: B16 chain with G333V, S360W
# Target: full-length native BPV1 E2 trans-activator protein (bovine papillomavirus type 1 (BPV1)) (UniProt P03122)
# Experiment: not given
row,Molecule,Repression as % decrease in trans-activation by E2 [%]
1,BPV1 E2 mutant 316Y in the E2 repressor format (C-terminal 249 amino acids) (from UniProt P03122),8
2,BPV1 E2 mutant 402* in the E2 repressor format (from UniProt P03122),45.2
3,BPV1 E2 mutant 374S/375L/391I (3SLI) in the E2 repressor format (C-terminal 249 amino acids) (from UniProt P03122),39
4,BPV1 E2 mutant 411* in the E2 repressor format (from UniProt P03122),4.5
5,BPV1 E2 mutant 366Y/376L in the E2 repressor format (C-terminal 249 amino acids) (from UniProt P03122),16.1
6,BPV1 E2 mutant 317STOP in the E2 repressor format (from UniProt P03122),7.1
7,BPV1 E2 mutant 408* in the E2 repressor format (from UniProt P03122),59.5
8,BPV1 E2 mutant 370I in the E2 repressor format (C-terminal 249 amino acids) (from UniProt P03122),66.1

# Target: full-length HPV16 E2 protein (human papillomavirus type 16 (HPV16)) (UniProt P03120)
# Experiment: not given
row,Molecule,% REPRESSION (hGH reporter) [%]
1,native BPV1 E2 repressor (C-terminal 249 amino acids of the BPV1 E2 protein) (from UniProt P03122),100

# Target: full-length native BPV1 E2 trans-activator protein (bovine papillomavirus type 1 (BPV1)) (UniProt P03122)
# Experiment: not given
# Remark: another data set of the same source
row,Molecule,% repression of E2-dependent trans-activation (CAT or hGH reporter) [%]
1,native BPV1 E2 repressor (C-terminal 249 amino acids of the BPV1 E2 protein) (from UniProt P03122),> 80

# Target: full-length native BPV1 E2 trans-activator protein (bovine papillomavirus type 1 (BPV1), UniProt P03122)
# Experiment: cell-based or functional assay
row,Molecule,Repression as % decrease in trans-activation by E2 [%]
1,B1,0
2,B2,32.3
3,B3,86.1
4,B4,82.6
5,B5,81.4
6,B6,93.5
7,B7,91.7
8,B8,89.6
9,B9,76.2
10,B10,95.6
11,B11,86.9
12,B12,90.4

# Target: full-length HPV16 E2 protein (human papillomavirus type 16 (HPV16), UniProt P03120)
# Experiment: cell-based or functional assay
row,Molecule,% REPRESSION (hGH reporter) [%]
1,B13,0
2,B14,87.2
3,B15,100

# Target: the molecule itself
# Experiment: homodimerization; UV cross-linking, yeast extract
row,Molecule,binding result
1,B16,no binding

# Target: the molecule itself
# Experiment: homodimerization; UV cross-linking, SDS-PAGE, immunoblot
row,Molecule,binding result
1,B17,no binding
